For four molecules, EC50 for stimulation of pSTAT4 signaling, CD8+ T cells in pre-activated human PBMCs results are on record in patent US20250101107A1.

Sequences and labels used below:
B1: 03A01-Fab-IL12 (LC) (protein, from a related filing, not shown: a dimerising Fc or GST)
VH: DVQFQESGPGLVKPSQSLSLTCTVTGYSITSDFAWNWIRQFPGNELEWMGYISYSGDTNYNPSLRSRISITRDTSKNQFFLQLDSVTTEDTATYYCTIRGYYTDSAFVFWGQGTLVTVSA
VL: DIQMTQSSSYLSVSLGGRVTITCKASDHINNWLAWYQQKPGNAPRLLISGATSLETGVPSRFTGSGSGLDYTLSITSLQTEDVATYYCQQYWNSPFTFGSGTKLEIK
B2: 03A01-Fab-Fc-IL12 (LC) (protein, from a related filing, not shown: a dimerising Fc or GST)
VH: B1 VH
VL: B1 VL
B3: 02A01-Fab-IL12 (LC) (protein, from a related filing, not shown: a dimerising Fc or GST)
VH: EVQLQQSGPELVKPGASLKISCKASGYTFTDFTMHWVKQSHGKSLEWIGLVNPNNGGNIYNQNFKGKATLTVDTSSSTAYMELRSLTSEDSSVYYCGRVPLYTSHGMDYWGQGTSVTVSS
VL: DIVLTQSPAFLAVSLGQRATISCRASESVDSYDINSMHWYQQKPGQPPKLLIYRASHLQSGIPARFSGSGSRTDFTLTINFVEADDVATYYCQQSNEDPLTFGAGTKLELK
B4: 02A01-Fab-Fc-IL12 (LC) (protein, from a related filing, not shown: a dimerising Fc or GST)
VH: B3 VH
VL: B3 VL

This test deals with human CD8 on human T cells (human) (UniProt P01732). In words: cell-based or functional assay.
Sequence of human CD8 on human T cells (human) (P01732 22-235, chain 1 of 2): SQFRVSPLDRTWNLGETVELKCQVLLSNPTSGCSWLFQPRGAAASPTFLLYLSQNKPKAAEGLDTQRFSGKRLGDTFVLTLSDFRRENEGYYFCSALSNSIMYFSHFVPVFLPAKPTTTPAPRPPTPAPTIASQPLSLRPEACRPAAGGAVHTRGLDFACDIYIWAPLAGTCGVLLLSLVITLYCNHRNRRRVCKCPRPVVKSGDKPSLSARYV
Sequence of human CD8 on human T cells (human) (P10966 22-210, chain 2 of 2, further chain): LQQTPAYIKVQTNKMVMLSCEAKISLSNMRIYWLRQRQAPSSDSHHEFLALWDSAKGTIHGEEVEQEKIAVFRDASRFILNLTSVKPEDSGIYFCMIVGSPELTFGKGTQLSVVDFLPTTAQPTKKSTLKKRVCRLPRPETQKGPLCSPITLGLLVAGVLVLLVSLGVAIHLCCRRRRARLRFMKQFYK
For B1, the EC50 for stimulation of pSTAT4 signaling, CD8+ T cells in pre-activated human PBMCs is 0.0111 nM.
The molecule B2 displayed an EC50 for stimulation of pSTAT4 signaling, CD8+ T cells in pre-activated human PBMCs of 0.0134 nM.
In turn, B3 yielded an EC50 for stimulation of pSTAT4 signaling, CD8+ T cells in pre-activated human PBMCs of 0.00174 nM.
The figure for B4 is 0.00211 nM.
